What is called Kd is the free concentration of one partner at which half of the binding sites on the other are occupied at equilibrium, for simple one-to-one binding. As a reminder, the koff is the first-order rate constant of dissociation. As a reminder, the kon is a measure of how fast the partners come together. What is called IC50 is the concentration needed to halve the response being measured.

Test [1] addresses T1, recombinant purified human IL-12 p70 (human, UniProt P29459 23-219).
T1 construct: Disulfide-linked heterodimer of p35 and p40; also called hIL-12; Hu IL-12
T1 sequence 1: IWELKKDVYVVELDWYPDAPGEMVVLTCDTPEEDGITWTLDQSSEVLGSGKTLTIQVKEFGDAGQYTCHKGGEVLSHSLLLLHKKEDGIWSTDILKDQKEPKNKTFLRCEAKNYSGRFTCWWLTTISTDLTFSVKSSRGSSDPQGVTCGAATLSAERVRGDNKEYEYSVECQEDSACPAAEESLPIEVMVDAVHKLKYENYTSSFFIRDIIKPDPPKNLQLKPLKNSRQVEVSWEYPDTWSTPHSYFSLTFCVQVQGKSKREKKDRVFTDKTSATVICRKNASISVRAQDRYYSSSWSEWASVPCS
T1 sequence 2: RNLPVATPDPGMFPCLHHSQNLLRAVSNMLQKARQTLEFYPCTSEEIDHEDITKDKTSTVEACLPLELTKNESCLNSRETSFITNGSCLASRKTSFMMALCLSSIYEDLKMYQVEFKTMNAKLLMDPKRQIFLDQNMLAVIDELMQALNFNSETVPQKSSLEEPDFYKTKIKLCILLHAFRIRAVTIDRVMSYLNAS
Nature of the test: SPR (Biacore) according to Example 1.1.B. Here is the method: The BIACORE assay (Biacore, Inc, Piscataway, N.J.) determines the affinity of antibodies with kinetic measurements of on-, off-rate constants. Binding of antibodies to recombinant purified human IL-12 p70 or recombinant purified human IL-12 p40 were determined by surface plasmon resonance-based measurements with a Biacore® 3000 instrument (Biacore® AB, Uppsala, Sweden) using running HBS-EP (10 mM HEPES [pH 7.4], 150 mM NaCl, 3 mM EDTA, and 0.005% surfactant P20) at 25° C. All chemicals were obtained from Biacore® AB (Uppsala, Sweden) or otherwise from a different source as described in the text. Approximately 5000 RU of goat anti-mouse IgG, (Fcγ), fragment specific polyclonal antibody (Pierce Biotechnology Inc, Rockford, Ill.) diluted in 10 mM sodium acetate (pH 4.5) was directly immobilized across a CM5 research grade biosensor chip using a standard amine coupling kit according to manufacturer's instructions and procedures at 25 μg/ml. Unreacted moieties on the biosensor surface were blocked with ethanolamine. Modified carboxymethyl dextran surface in flowcell 2 and 4 was used as a reaction surface. Unmodified carboxymethyl dextran without goat anti-mouse IgG in flow cell 1 and 3 was used as the reference surface. For kinetic analysis, rate equations derived from the 1:1 Langmuir binding model were fitted simultaneously to association and dissociation phases of all eight injections (using global fit analysis) with the use of Biaevaluation 4.0.1 software. Purified antibodies were diluted in HEPES-buffered saline for capture across goat anti-mouse IgG specific reaction surfaces. Mouse antibodies to be captured as a ligand (25 μg/ml) were injected over reaction matrices at a flow rate of 5 μl/min. The association and dissociation rate constants, kₒₙ (unit M⁻¹ s⁻¹) and koff (unit s⁻¹) were determined under a continuous flow rate of 25 μl/min. Rate constants were derived by making kinetic binding measurements at ten different antigen concentrations ranging from 10-200 nM. The equilibrium dissociation constant (unit M) of the reaction between mouse antibodies and recombinant purified human IL-12 p70 or recombinant purified human IL-12 p40 was then calculated from the kinetic rate constants by the following formula: KD=koff/kₒₙ. Binding is recorded as a function of time and kinetic rate constants are calculated.
A general note: In SPR one partner is held on a chip, and binding of the other changes the refractive index at the surface.

Test [2] addresses T1, recombinant purified human IL-12 p70. Nature of the test: cell-based or functional assay.
For test [3] the target is unchanged. Nature of the test: competition ELISA on coated human IL-12, competitor of 0.8 µg/ml biotinylated 8E1, Expt. 3. Here is the method:
(§1) MaxiSorp ELISA plates (Nalge Nunc International) were coated overnight at 4° C. with 100 μl/well of 1.0 μg/ml human IL-12 in 0.2 M sodium carbonate-bicarbonate buffer, pH 9.4, washed with Wash Buffer (PBS containing 0.1% Tween 20), and blocked for 1 hr at room temperature with 300 μl/well of SuperBlock Blocking Buffer in TBS (Pierce Chemical Company). […] As isotype controls, 100 μl/well of 100 μg/ml mouse IgG 1/κ (MuFd79) or humanized IgG1/κ (HuFd79) monoclonal antibodies in ELISA buffer was used. As a no-competitor control, 100 μl/well of ELISA Buffer was used. After incubating the plates for 1 hr at room temperature, and washing with Wash Buffer, bound antibodies were detected using 100 μl/well of 1 μg/ml HRP-conjugated streptavidin (Pierce Chemical Company) in ELISA buffer. After incubating for 1 hr at room temperature, and washing with Wash Buffer, color development was performed by adding 100 μl/well of ABTS Peroxidase Substrate/Peroxidase Solution B (KPL, Inc.). After incubating for 5 min at room temperature, color development was stopped by adding 50 μl/well of 2% oxalic acid. Absorbance was read at 415 nm.
(§2) The affinity of 8E1.4, 8E1.5 and 8E1.6 to human IL-12 was analyzed by competition ELISA as described above.

The target is the same in test [4]. Description: competition ELISA on coated human IL-12, competitor of 0.8 µg/ml biotinylated 8E1, Expt. 1. Here is the method: as §1, §2
On the technique in general: An ELISA detects its analyte on a solid surface through an enzyme-linked reagent.

The target is the same in test [5]. Nature of the test: competition ELISA on coated human IL-12, competitor of 0.8 µg/ml biotinylated 8E1, average. The procedure:
as §1, §2

The target is the same in test [6]. Nature of the test: competition ELISA on coated human IL-12, competitor of 0.8 µg/ml biotinylated 8E1, Expt. 2. Here is the method: MaxiSorp ELISA plates (Nalge Nunc International) were coated overnight at 4° C. with 100 μl/well of 1.0 μg/ml human IL-12 in 0.2 M sodium carbonate-bicarbonate buffer, pH 9.4, washed with Wash Buffer (PBS containing 0.1% Tween 20), and blocked for 1 hr at room temperature with 300 μl/well of SuperBlock Blocking Buffer in TBS (Pierce Chemical Company). After washing with Wash Buffer, a mixture of biotinylated 8E 1 ([…] final concentration) and competitor antibody (8E1 or 8E1.4 or 8E1.5 or 8E1.6) starting at 100 μg/ml final concentration and serially diluted 3-fold) in 100 μl/well of ELISA buffer was added in duplicate. As isotype controls, 100 μl/well of 100 μg/ml mouse IgG 1/κ (MuFd79) or humanized IgG1/κ (HuFd79) monoclonal antibodies in ELISA buffer was used. As a no-competitor control, 100 μl/well of ELISA Buffer was used. After incubating the plates for 1 hr at room temperature, and washing with Wash Buffer, bound antibodies were detected using 100 μl/well of 1 μg/ml HRP-conjugated streptavidin (Pierce Chemical Company) in ELISA buffer. After incubating for 1 hr at room temperature, and washing with Wash Buffer, color development was performed by adding 100 μl/well of ABTS Peroxidase Substrate/Peroxidase Solution B (KPL, Inc.). […] Absorbance was read at 415 nm.
as §2

B1: additional humanized anti-IL-12 antibody 1A6.10 (antibody, human IgG1, V domains shown)
VH: EVTLRESGPGLVKPTQTLTLTCTLYGFSLSTSGMGVSWIRQPPGKGLEWLAHIWWDGDNYYNPSLKSQLTISKDTSKNQVVLKLTSVDPVDTATYYCARRTRVNYAMDYWGQGTLVTVSS
VL: DIQMTQSPSSLSASVGDRVTITCKASQSVSNDVAWYQQKPGKAPKLLIYYASNRYTGVPDRFSGSGYGTDFTFTISSLQPEDIATYYCQQDYNSPWTFGGGTKVEIKR
notes: Only variable domains tied to it
As for B1, in test [1], the equilibrium dissociation constant (Kd) worked out at 0.024 nM, the koff was 7.6e-06 s⁻¹ and the kon came out at 320000 M⁻¹ s⁻¹. Besides, the “Av. IC50 (nM) huIL-12, PHA blast assay” value in test [2] came out at 0.15 nM.

B2: additional humanized anti-IL-12 antibody 1A6.12 (antibody, human IgG1, V domains shown)
VH: EVTLRESGPGLVKPTQTLTLTCTLYGFSLSTSGMGVSWIRQPPGKGLEWLAHIWWDGDNYYNPSLKSQLTISKDTSKNQVVLKLTSVDPVDTATYYCARRTRVNYAMDYWGQGTLVTVSS
VL: DIQMTQSPSSLSASVGDRVTITCKASQSVSNDVAWFQQKPGKAPKLLIYYASNRYTGVPDRFSGSGYGTDFTFTISSLQPEDIATYYCQQDYNSPWTFGGGTKVEIKR
notes: as for B1
As for B2, in test [1], the Kd stood at 0.4 nM, the dissociation rate constant (koff) came out at 0.0003 s⁻¹ and the kon came to 740000 M⁻¹ s⁻¹. Moreover, the “Av. IC50 (nM) huIL-12, PHA blast assay” value in test [2] is 0.088 nM.

B3: additional humanized anti-IL-12 antibody 8E1.4 (antibody, IgG1, V domains shown)
VH: EVQLVESGGGLVQPGGSLRLSCAASGFTFSDYGMVWVRQAPGKGLEWVASISSGSSNIYYADTVKGRFTISRDNAKNTLYLQMNSLRAEDTAVYYCARNPYWGQGTLVTVSS
VL: DIQMTQSPSSLSASVGDRVTITCKASQNVGTNVAWYQQKPGKAPKGLIYSASHRYSGVPSRFSGSGSGTDFTLTISSLQPEDFATYYCQQYNSYPLTFGGGTKVEIKR
notes: IgG1/kappa
For B3, in test [1], the Kd was found to be 1.3 nM, the off-rate (koff) worked out at 0.001 s⁻¹ and the kon came out at 800000 M⁻¹ s⁻¹. In test [3], the IC50 was 8.33 µg/mL. In addition, the “Av. IC50 (nM) huIL-12, PHA blast assay” value in test [2] was determined as 12 nM.

B4: additional humanized anti-IL-12 antibody 8E1.5 (antibody, IgG1, V domains shown)
VH: EVQLVESGGGLVQPGGSLRLSCAASGFTFSDYGMVWVRQAPGKGLEWVASISSGSSNIYYADTVKGRFTISRDNAKNTLYLQMNSLRAEDTAVYYCARNPYWGQGTLVTVSS
VL: DIQMTQSPSSLSASVGDRVTITCKASQNVGTNVAWYQQKPGKAPKGLIYSASHRYSGVPDRFSGSGSGTDFTLTISSLQPEDFATYYCQQYNSYPLTFGGGTKVEIKR
notes: IgG1/kappa
Regarding B4, in test [1], the Kd is 0.75 nM, the koff is 0.00124 s⁻¹ and the kon is 1.6e+06 M⁻¹ s⁻¹. The IC50 in test [3] amounted to 13.4 µg/mL. In addition, the “Av. IC50 (nM) huIL-12, PHA blast assay” value in test [2] stood at 8 nM.

B5: additional humanized anti-IL-12 antibody 8E1.6 (antibody, V domains shown)
VH: EVQLVESGGGLVQPGGSLRLSCAASGFTFSDYGMVWVRQAPGKGLEWVASISSGSSNIYYADTVKGRFTISRDDAKNTLYLQMNSLRAEDTAVYYCARNPYWGQGTLVTVSS
VL: DIQMTQSPSSLSASVGDRVTITCKASQNVGTNVAWYQQKPGKAPKGLIYSASHRYSGVPSRFSGSGSGTDFTLTISSLQPEDFATYYCQQYNSYPLTFGGGTKVEIKR
notes: IgG1/kappa, expressed in 293T/17 cells from pVg1.D.Tt (D356E L358M, L234A L235A) and pVk
For B5, the Kd in test [1] was 0.046 nM. In test [1], the koff turned out to be 8e-05 s⁻¹. In addition, the kon in test [1] was found to be 1.7e+06 M⁻¹ s⁻¹. Also, the concentration for half-maximal inhibition (IC50) in test [3] was determined as 1.61 µg/mL; in test [4], 2.25 µg/mL; in test [5], 2.1 µg/mL; in test [6], 2.43 µg/mL.

For the origin of these results see patent US20140178332A1 (published 2014).
